Data published in patent US5639597A, “Cell-free receptor binding assays, the production and use thereof” (Behringwerke Aktiengesellschaft, priority 1990, dated 1997).

T1: IL-4-biotin (Homo sapiens, UniProt P05112)
T1 sequence (P05112 25-153): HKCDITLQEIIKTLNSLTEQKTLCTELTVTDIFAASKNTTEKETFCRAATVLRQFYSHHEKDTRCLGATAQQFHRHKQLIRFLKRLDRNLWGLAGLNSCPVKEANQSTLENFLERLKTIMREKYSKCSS

B1: IL-7RFc: an Fc fusion of the human IL-7 receptor (protein)
chain: ESGYAQNGDLEDAELDDYSFSCYSQLEVNGSQHSLTCAFEDPDVNITNLEFEICGALVEVKCLNFRKLQEIYFIETKKFLLIGKSNICVKVGEKSLTCKKIDLTTIVKPEAPFDLSVVYREGANDFVVTFNTSHLQKKYVKVLMHDVAYRQEKDENKWTHVNLSSTKLTLLQRKLQPAAMYEIKVRSIPDHYFKGFWSEWSPSYYFRTPEINNSSGEMD
B2: G-CSF: ligand used for competition (specificity control) (protein, UniProt P09919 31-207, looked up)
Granulocyte …: TPLGPASSLPQSFLLKCLEQVRKIQGDGAALQEKLVSECATYKLCHPEELVLLGHSLGIPWAPLSSCPSQALQLAGCLSQLHSGLFLYQGLLQALEGISPELGPTLDTLQLDVADFATTIWQQMEELGMAPALQPTQGAMPAFASAFQRRAGGVLVASHLQSFLEVSYRVLRHLAQP

Assays:
[1] = molecular target: T2, TNFRFc (extra-cellular portion of the 80 kD form of the human TNF receptor fused to Fc of human IgG1) (Homo sapiens, UniProt P20333); experiment: Cell-free TNF binding assay, competition of ligands with TNF-alpha-biotin; conditions: 200 ng/ml TNFRFc for coating, 20 ng/ml TNF-alpha-biotin, FIG. 8; for effect on binding of TNF-alpha-biotin to TNFRFc: concentrations used
T2 construct: made in house
Experimental: (§1) The assay plate was washed five times with PBS containing 0.05% Tween 20 and then incubated with 275 μl of PBS containing 5% skim milk powder at room temperature for 60 min and then washed as above. Then a "checkerboard titration" was initially carried out in order to determine a suitable combination of receptor and ligand concentrations for the design of the assay. […] After washing as above, incubation with 100 μl of streptavidin-peroxidase (Amersham; 1:250 in DMEM/FCS) was carried out at room temperature for 30 min and then washed as above. The bound peroxidase was detected by the color produced in 100 μl of tetramethylbenzidine substrate solution (Behringwerke). After incubation at room temperature for 30 min, the extinction at 450 nm was measured.

[2] = molecular target: T3, GM-CSFRFc (extracellular domain of the human GM-CSF receptor fused to Fc of human IgG1) (Homo sapiens, UniProt P15509); experiment: Cell-free GM-CSF binding assay, competition of ligands with GM-CSF-biotin; conditions: 1000 ng/ml GM-CSFRFc for coating, 150 ng/ml GM-CSF-biotin, concentrations used; FIG. 14
T3 construct: made in house; host or cells: COS cells (transient; supernatants used)
Experimental: as §1, with “ELISA plates (Nunc, type B) were coated overnight at 4° C. with 100 μl of an affinity-purified rabbit serum against the CH2 domain of human IgG (Dakopatts). The concentration was 10 μg/ml in PBS (137 mM NaCl, 2.7 mM KCl, 6.1 mM Na2 HPO4, 3.9 mM KH2 PO4, 0.5 mM MgCl2, 0.1 mM CaCl2, pH 7.0). The assay” for “The assay”
Transient expression of pGM-CSFRFc in COS cells was carried out. To do this, COS cells were transfected with pGM-CSFRFc with the aid of DEAE-dextran (EP-A 0325 262).

TNFRFc (human) = experiment: competition with TNF-alpha-biotin (20 ng/ml) for plate-bound TNFRFc (200 ng/ml for coating), ELISA format
TNF-alpha-biotin = experiment: soluble TNFRFc competing with plate-bound TNFRFc for TNF-alpha-biotin, ELISA format
[3] = molecular target: T4, IL-4RFc (extracellular portion of the human receptor for IL-4 fused to Fc of human IgG1) (Homo sapiens, UniProt P24394); experiment: Cell-free IL-4 binding assay, competition of ligands with IL-4-biotin; conditions: 300 ng/ml IL-4-biotin, various concentrations of competitor; FIG. 3
T4 construct: It is composed of the extracellular portion of the human receptor for IL-4
Experimental: as §1, with “ELISA plates (Nunc, type B) were coated overnight at 4° C. with 100 μl of an affinity-purified rabbit serum against the CH2 domain of human IgG (Dakopatts). The concentration was 10 μg/ml in PBS (137 mM NaCl, 2.7 mM KCl, 6.1 mM Na2 HPO4, 3.9 mM KH2 PO4, 0.5 mM MgCl2, 0.1 mM CaCl2, pH 7.0). The assay” for “The assay”

IL-4-biotin = molecular target: T1, IL-4-biotin; experiment: Detection of soluble IL-4 receptor in the cell-free binding assay (competition for IL-4-biotin); conditions: plate coated with 300 ng/ml IL-4RFc; FIG. 4
Experimental: as §1, with “ELISA plates (Nunc, type B) were coated overnight at 4° C. with 100 μl of an affinity-purified rabbit serum against the CH2 domain of human IgG (Dakopatts). The concentration was 10 μg/ml in PBS (137 mM NaCl, 2.7 mM KCl, 6.1 mM Na2 HPO4, 3.9 mM KH2 PO4, 0.5 mM MgCl2, 0.1 mM CaCl2, pH 7.0). The assay” for “The assay”

Molecule	inhibition of binding of GM-CSF-biotin to GM-CSFRFc [2]	effect on binding of TNF-alpha-biotin to TNFRFc [1]	also measured
TNF-alpha	do not inhibit	–	inhibition of binding of TNF-alpha-biotin, IC50 [1]: 5 ng/mL
GM-CSF: granulocyte/macrophage colony-stimulating factor, unlabelled ligand	–	no effect	–
TNF-alpha (ligand)	–	–	IC50 (TNFRFc (human)): 5 ng/mL
IL-4: interleukin 4, unlabelled ligand used for competition	do not inhibit	no effect	–
TNFRFc (Fc fusion)	–	–	IC50 (TNF-alpha-biotin): 35 ng/mL
IL-1-alpha: interleukin ligand used for competition (specificity control)	do not inhibit	no effect	competition with IL-4-biotin for binding to IL-4RFc [3]: no binding activity
B1	–	–	binding activity of soluble receptor/Fc fusion protein in IL-4-biotin competition assay (IL-4-biotin): no binding activity
B2	do not inhibit	–	–
